In PMC5727538, “Comprehensive analysis of the catalytic and structural properties of a mu-class glutathione s-transferase from Fasciola gigantica” (Scientific Reports, 2017):

Target: the molecule itself
Experiment: SEC; Superdex 200 10/300 GL on AKTA-FPLC, 20 mM phosphate buffer pH 7.5, 150 mM NaCl, 0.3 mL/min; calibrated with molecular weight markers; elution at 15.4 mL, about 50 kDa

B1: mu-class glutathione S-transferase from Fasciola gigantica (FgGST1) (enzyme)
chain: MPATLGYWKLRGLAQPIRLLLEFVGEKYEEQIYERDDGEKWFSKKFELGLDLPNLPYYIDDKCKLTQSLAILRYIADKHGMIGSTPEERARVSMIEGAAVDLRQGLSRISYDPKFEQLKEGYLKDLPTTMKMWSDFLGKNLYLRGTSVSHVDFMVYEALDAIRYLEPHCLDHFPNLQQFMSRIEALPSIKAYMESNRFIKWPLNGWHAQFGGGDAPPSHEKK
**Q.** How did the “stoichiometry N” value turn out when B1 was run?
**A.** 2
